This is an account of results in paper PMC3554631, “Structural Basis of a Histone H3 Lysine 4 Demethylase Required for Stem Elongation in Rice” (PLoS Genetics, 2013).

Common to all, as to assay type: cell-based
Settings in all cases: mutant expressed transiently in tobacco cells, immunostaining of nuclei, at least 30 nuclei per transfection

For test [1], the system named is H3K4me1. In words: H3K4 demethylation assay in tobacco cells of JMJ703 substitution mutants, H3K4me1. The procedure:
(§1) The cDNA fragment of the J3NCZ region was amplified using primers FAJ3NCZ-F and FAJ3NCZ-R and then cloned into pFA121 vector modified from pBI121 (GenBank: AF485783.1), in which GUS was replaced by 2×FLAG∶2×HA tag. The pFA121-J3NCZ plasmid was transferred into Agrobacterium tumefaciens strain EHA105 cells for tobacco infection with the help of Agrobacterium cells harboring P19 plasmids. For in vivo histone demethylation assay, tobacco infection and nuclei isolation were performed as previously described. The immunostaining protocol was modified from http://sites.bio.indiana.edu/~pikaardlab. Briefly, the nucleus solution was placed on a poly-lysine coated slide, air dried, and then refixed with 4% formaldehyde in KPBS (1.28 M NaCl, 20 mM KCl, 80 mM Na2HPO4, 20 mM KH2PO4, pH7.2) containing 1% Triton X-100 for 20 min. After 3 washes with KPBS-1% Triton, slides were blocked with blocking solution (1% BSA in KPBS-1% Triton) and incubated at 37°C for 30 min. The blocking solution was washed off with KPBS-1% Triton and the slides were incubated with both anti-HA and histone méthylation specific antibodies diluted in blocking solution to 1∶300 at 4°C overnight. After washing with KPBS, slides were blocked and incubated with fluorescent-labeled antibodies at 37°C for 2 h. After washing with KPBS thrice, nuclei were stained with 5 µg/mL 4,6-diamidino-2-phenylindole (DAPI), coated with a drop of VECTASHIELD Mounting Medium (H-1000, Vector Laboratories), and then covered with a coverslip followed by confocal microscope (Leica) detection. In vitro histone demethylation assays were performed as previously described. FA-J3NCZ was purified after overexpression with Anti-FLAG M2 magnetic beads according the manufacturer's instruction (Sigma).
(§2) Supplementary file pgen.1003239.s006.tif: Figure S6 Demethylation assays for JMJ703 substitution mutants that have been produced based on the structural data. The mutant names are labeled at the top left corner of each panel. Image panels from left to right are staining by DAPI, anti-HA and anti-methylated histones, respectively. Bar = 10 µm. At least 30 nuclei that expressed JMJ703 per transfection were observed and imaged. (TIF) Click here for additional data file.

The test system of test [2] is H3K4me3. In words: H3K4 demethylation assay in tobacco cells of JMJ703 substitution mutants, H3K4me3. The procedure:
as §1, §2

Test [3] deals with H3K4me2. Briefly: H3K4 demethylation assay in tobacco cells of JMJ703 substitution mutants, H3K4me2. The procedure:
as §1, §2

B1: Y383A: JMJ703 substitution mutant, methyl group-binding residue (protein, UniProt Q53WJ1 1-1238, looked up, variant Y383A)
Lysine-specific demethylase …: MMGVTTTLNEDTEPSIPPGFGPFATLPLWGIHNDAKPAVTHSTPVQALQSIRKDSEECQPSAAVSRSDTPCSTSGTQTCRKSLRNRPPIDYSRFEHISDEDSDVEIVEKDVSSTRRRQQLPKGVLRGCAECSDCQKVIAKWNPAGARRPVLDEAPVFYPTEEEFEDTLKYIESIRPMAEPYGICRIVPPSSWKPPCLLKDKSIWEGSKFSTRVQKVDKLQNRKSSKKGRRGGMMKRRKLAESEENSATAHTQTGMQQSPERFGFEPGPEFTLQTFQKYADDFSKQYFRKDTSMDSVPSVEDIEGEYWRIVEVPTEEIEVIYGADLETGTFGSGFPKLSPETKSDAEDKYAQSGWNLNNLPRLQGSVLSFEGGDISGVLVPWVAVGMCFSSFCWHVEDHHLYSLNYMHWGAPKLWYGVPGKDAVNLESAMRKHLPELFEEQPDLLHNLVTQFSPSLLKSEGVHVYRCVQHEGEFVLTFPRAYHAGFNCGFNCAEAVNVAPIDWLPIGHNAVELYREQARKITISHDKLLLGAAREAIRAQWDILFLKRNTADNMRWKSICGADSTIFKALKARIETELVQRKTLGVPAQSRKMDAEFDSIDRECALCYYDLHLSASGCPCCPEKYACLVHAKQLCSCDWDKRFFLFRYDVNELNILADALGGKLSAIHRWGVSDLGLSLSSCVKREKVQDSKTVRRLTDGPRRSYMSQASAVSLVSSSTSNEQKDEGNKIMKIASPQTNNVCPSVEQRKSENISPLKEPCVRNELSCTTNSDSNGLQYNGGLGGHKGSAPGLPVSSSPSFSSNVATRPISTSSVSMKIVQGLVASKSCIQASSRTGDSRSLLGEHHNRSPAMIHDGTNMKSSLESSNNSCRLIASDYNATPCHSSKDQVLVTPGTNASVVTLKDSSQVHSASSQQFVRTGPWTQSASHEASSPSTSALKPSLDPPAMKNLYGGFTQGSAHPGPPSFSNQQPNDGRLQRTSESLPGVEARARGHPTVTAQPALEIHSRNGGAQKGPRIANVVHRFKCSVEPLEIGVVLSGRLWSSSQAIFPKGFRSRVKYFSIVDPIQMAYYISEILDAGMQGPLFMVKLENCPGEVFINLSPTKCWNMVRERLNMEIRRQLNMGKSNLPTLQPPGSVDGLEMFGLLSPPIVQAIWARDRDHICTEYWRSRPHVLIEDPNNRHMLSQGPPLLALRGLIQRANRDELQVLRSLMTNSNNLDDSSRQQAAHIIEEEIAKQLC
For B1, in test [1], the H3K4me1 demethylation activity result is given as “no”. For the same molecule, the H3K4me3 demethylation activity entry in test [2] was “no”. Besides, the H3K4me2 demethylation activity entry in test [3] is reported as “yes”.

B2: N496A: JMJ703 substitution mutant, methyl group-binding residue (protein, UniProt Q53WJ1 1-1238, looked up, variant N496A)
Lysine-specific demethylase …: MMGVTTTLNEDTEPSIPPGFGPFATLPLWGIHNDAKPAVTHSTPVQALQSIRKDSEECQPSAAVSRSDTPCSTSGTQTCRKSLRNRPPIDYSRFEHISDEDSDVEIVEKDVSSTRRRQQLPKGVLRGCAECSDCQKVIAKWNPAGARRPVLDEAPVFYPTEEEFEDTLKYIESIRPMAEPYGICRIVPPSSWKPPCLLKDKSIWEGSKFSTRVQKVDKLQNRKSSKKGRRGGMMKRRKLAESEENSATAHTQTGMQQSPERFGFEPGPEFTLQTFQKYADDFSKQYFRKDTSMDSVPSVEDIEGEYWRIVEVPTEEIEVIYGADLETGTFGSGFPKLSPETKSDAEDKYAQSGWNLNNLPRLQGSVLSFEGGDISGVLVPWVYVGMCFSSFCWHVEDHHLYSLNYMHWGAPKLWYGVPGKDAVNLESAMRKHLPELFEEQPDLLHNLVTQFSPSLLKSEGVHVYRCVQHEGEFVLTFPRAYHAGFNCGFNCAEAVAVAPIDWLPIGHNAVELYREQARKITISHDKLLLGAAREAIRAQWDILFLKRNTADNMRWKSICGADSTIFKALKARIETELVQRKTLGVPAQSRKMDAEFDSIDRECALCYYDLHLSASGCPCCPEKYACLVHAKQLCSCDWDKRFFLFRYDVNELNILADALGGKLSAIHRWGVSDLGLSLSSCVKREKVQDSKTVRRLTDGPRRSYMSQASAVSLVSSSTSNEQKDEGNKIMKIASPQTNNVCPSVEQRKSENISPLKEPCVRNELSCTTNSDSNGLQYNGGLGGHKGSAPGLPVSSSPSFSSNVATRPISTSSVSMKIVQGLVASKSCIQASSRTGDSRSLLGEHHNRSPAMIHDGTNMKSSLESSNNSCRLIASDYNATPCHSSKDQVLVTPGTNASVVTLKDSSQVHSASSQQFVRTGPWTQSASHEASSPSTSALKPSLDPPAMKNLYGGFTQGSAHPGPPSFSNQQPNDGRLQRTSESLPGVEARARGHPTVTAQPALEIHSRNGGAQKGPRIANVVHRFKCSVEPLEIGVVLSGRLWSSSQAIFPKGFRSRVKYFSIVDPIQMAYYISEILDAGMQGPLFMVKLENCPGEVFINLSPTKCWNMVRERLNMEIRRQLNMGKSNLPTLQPPGSVDGLEMFGLLSPPIVQAIWARDRDHICTEYWRSRPHVLIEDPNNRHMLSQGPPLLALRGLIQRANRDELQVLRSLMTNSNNLDDSSRQQAAHIIEEEIAKQLC
On to B2, for which, in test [1], the H3K4me1 demethylation activity result was “no”. The H3K4me3 demethylation activity result in test [2] was “yes”. The H3K4me2 demethylation activity result in test [3] was “yes”.

B3: E396A: JMJ703 substitution mutant, methyl group-binding residue (protein, UniProt Q53WJ1 1-1238, looked up, variant E396A)
Lysine-specific demethylase …: MMGVTTTLNEDTEPSIPPGFGPFATLPLWGIHNDAKPAVTHSTPVQALQSIRKDSEECQPSAAVSRSDTPCSTSGTQTCRKSLRNRPPIDYSRFEHISDEDSDVEIVEKDVSSTRRRQQLPKGVLRGCAECSDCQKVIAKWNPAGARRPVLDEAPVFYPTEEEFEDTLKYIESIRPMAEPYGICRIVPPSSWKPPCLLKDKSIWEGSKFSTRVQKVDKLQNRKSSKKGRRGGMMKRRKLAESEENSATAHTQTGMQQSPERFGFEPGPEFTLQTFQKYADDFSKQYFRKDTSMDSVPSVEDIEGEYWRIVEVPTEEIEVIYGADLETGTFGSGFPKLSPETKSDAEDKYAQSGWNLNNLPRLQGSVLSFEGGDISGVLVPWVYVGMCFSSFCWHVADHHLYSLNYMHWGAPKLWYGVPGKDAVNLESAMRKHLPELFEEQPDLLHNLVTQFSPSLLKSEGVHVYRCVQHEGEFVLTFPRAYHAGFNCGFNCAEAVNVAPIDWLPIGHNAVELYREQARKITISHDKLLLGAAREAIRAQWDILFLKRNTADNMRWKSICGADSTIFKALKARIETELVQRKTLGVPAQSRKMDAEFDSIDRECALCYYDLHLSASGCPCCPEKYACLVHAKQLCSCDWDKRFFLFRYDVNELNILADALGGKLSAIHRWGVSDLGLSLSSCVKREKVQDSKTVRRLTDGPRRSYMSQASAVSLVSSSTSNEQKDEGNKIMKIASPQTNNVCPSVEQRKSENISPLKEPCVRNELSCTTNSDSNGLQYNGGLGGHKGSAPGLPVSSSPSFSSNVATRPISTSSVSMKIVQGLVASKSCIQASSRTGDSRSLLGEHHNRSPAMIHDGTNMKSSLESSNNSCRLIASDYNATPCHSSKDQVLVTPGTNASVVTLKDSSQVHSASSQQFVRTGPWTQSASHEASSPSTSALKPSLDPPAMKNLYGGFTQGSAHPGPPSFSNQQPNDGRLQRTSESLPGVEARARGHPTVTAQPALEIHSRNGGAQKGPRIANVVHRFKCSVEPLEIGVVLSGRLWSSSQAIFPKGFRSRVKYFSIVDPIQMAYYISEILDAGMQGPLFMVKLENCPGEVFINLSPTKCWNMVRERLNMEIRRQLNMGKSNLPTLQPPGSVDGLEMFGLLSPPIVQAIWARDRDHICTEYWRSRPHVLIEDPNNRHMLSQGPPLLALRGLIQRANRDELQVLRSLMTNSNNLDDSSRQQAAHIIEEEIAKQLC
As to B3, in test [1], the H3K4me1 demethylation activity entry is “no”. Besides, the H3K4me3 demethylation activity entry in test [2] is “no”. For the same molecule, in test [3], the H3K4me2 demethylation activity result is “no”.
